# B1: JS001 (recombinant humanized anti-PD-1 monoclonal antibody reference article, Toripalimab) (antibody, human IgG4 S228P, kappa, V domains shown)
# VH: QGQLVQSGAEVKKPGASVKVSCKASGYTFTDYEMHWVRQAPIHGLEWIGVIESETGGTAYNQKFKGRVTITADKSTSTAYMELSSLRSEDTAVYYCAREGITTVATTYYWYFDVWGQGTTVTVSS
# VL: DVVMTQSPLSLPVTLGQPASISCRSSQSIVHSNGNTYLEWYLQKPGQSPQLLIYKVSNRFSGVPDRFSGSGSGTDFTLKISRVEAEDVGVYYCFQGSHVPLTFGQGTKLEIKR
# Target: PD-1 antigen with murine Fc tags (human) (UniProt Q15116)
# Assay: SPR (Biacore T200), PD-1-mFc captured by anti-mouse Fc antibody, 100 nM antibody injected
# Sequence of PD-1 antigen with murine Fc tags (human) (Q15116 25-167 limits assumed): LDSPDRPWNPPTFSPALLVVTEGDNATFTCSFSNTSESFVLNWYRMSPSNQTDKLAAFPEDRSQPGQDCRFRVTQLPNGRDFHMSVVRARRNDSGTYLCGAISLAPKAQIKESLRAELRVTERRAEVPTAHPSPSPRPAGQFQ
binder,measurement,value
B1,Bound antibody signal (RU),128 RU

# From EP4717714A1
